# Experimental data taken from patent publication US7460961B2, “N-TRADD active site and uses thereof” (Genetics Institute, LLC, priority 2000, dated 2008).
# B1: N-TRADD: N-terminal domain (amino acid residues 1-169, SEQ ID NO:1) of human TNFR-1 associated death domain protein (protein)
# chain: MAAGQNGHEWVGSAYLFVESSLDKVVLSDAYAHPQQKVAVYRALQAALAESGGSPDVLQMLKIHRSDPQLIVQLRFCGRQPCGRFLRAYREGALRAALQRSLAAALAQHSVPLQLELRAGAERLDALLADEERCLSCILAQQPDRLRDEELAELEDALRNLKCGSGAR
# Target: T1, C-TRAF2 (residues 262 to 501 of human TRAF2) (Homo sapiens, UniProt Q12933)
# T1 construct: C-TRAF2 (residues 262-501) was purified and coupled to a sensor chip CM5; initiator Met added before residue 262 (N); 6xHis (C); made in house; host or cells: baculovirus in 'Tini' cells (insect cells), vector pAcSG2
# T1 sequence (Q12933 262-501): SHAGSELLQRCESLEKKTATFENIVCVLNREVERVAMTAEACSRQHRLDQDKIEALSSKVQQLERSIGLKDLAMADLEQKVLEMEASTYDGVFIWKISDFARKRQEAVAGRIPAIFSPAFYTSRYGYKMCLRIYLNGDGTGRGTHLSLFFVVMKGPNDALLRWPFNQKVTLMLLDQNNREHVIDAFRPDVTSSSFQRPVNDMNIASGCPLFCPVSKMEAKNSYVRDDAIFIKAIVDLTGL
# Assay: BIAcore surface plasmon resonance binding to immobilised C-TRAF2
# Conditions: C-TRAF2 coupled to CM5 chip, read-out: Kd of the interaction between N-TRADD and C-TRAF2
# Protocol: C-TRAF2 and N-TRADD binding studies: The affinity of wild-type N-TRADD and C-TRAF2 was measured by surface plasma resonance using a BIAcore 2000 system (Pharmacia Biosensor AB). C-TRAF2 (residues 262-501) was purified and coupled to a sensor chip CM5 by amine coupling at pH=5.0 to get about 800, 1500 and 5500 response units on three different flow cells. A constant flow (20 μL/min) of purified N-TRADD protein in 10 mM Hepes, pH=7.4, 150 mM NaCl, 3.4 mM EDTA and 0.05% P20 surfactant at 8 different concentrations from 650 μM to 84 μM was applied over the protein coupled chip for 2 min to analyze the association. Binding constants were obtained from the BIAevaluation software.
# The ^1H-^15N HSQC of N-TRADD was used as a tool to map the binding interface with C-TRAF2, since the chemical shifts of contact residues will be perturbed upon complex formation. […] The C-TRAF2 (residues 262-501) used in the instant HSQC titration experiment (at 120 μM) is also a trimer, as determined by size exclusion chromatography. […] N-TRADD Mutagenesis and interactions between C-TRAF2 and N-TRADD: In order to further characterize the amino acids in N-TRADD that are involved in C-TRAF2 recognition, site directed mutants of N-TRADD were prepared and evaluated for their ability to bind C-TRAF2. […]
# The affinity of N-TRADD mutants to C-TRAF2 was measured by BIAcore. […]
molecule,measurement,value
B1,Kd,6 µM
